Results published in US20160024210A1 (AstraZeneca / MedImmune, published 2016).

Tests used:
[1] = target: T1, H7CRECD human IgG1 Fc fusion protein (human, UniProt Q96BF3 23-150); assay: ELISA, H7CRECD human IgG1 Fc immobilized, anti-human IgG4 HRP detection
T1 construct: also called H7CR fusion protein; not shown: human IgG1 Fc
T1 sequence: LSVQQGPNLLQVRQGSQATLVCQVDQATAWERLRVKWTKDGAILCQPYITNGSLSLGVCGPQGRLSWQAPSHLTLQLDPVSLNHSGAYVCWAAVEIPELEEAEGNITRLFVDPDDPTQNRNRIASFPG
Description: 100 μl 1 μg/ml H7CRECD human IgG1 Fc fusion protein diluted in PBS was immobilized on flat bottom 96 well plate (Costar 9017) overnight at 4° C. Plates were washed twice with PBS+0.1% PS-20 and blocked with 200 μl/well PBS 10% FBS at RT for 1 hr. 100 μl human IgG4 Fc chimeric 1.3 and 14 selected 1.3 humanized variants diluted in PBS 10% FBS were added to each well and incubated at RT for 1 hr. Plates were washed three times and 100 μl 1 μg/ml anti-human IgG4 HRP (Southern Biotech) was added to each well and incubated at RT for 1 hr. Plates were washed six times and 100 μl TMB substrate (SurModics) was added to each well for 5-15 mins. 100 μl stop solution (0.1M Sulfuric acid) was added to each well. Plates were read at Absorbance 450 nm by PerkinElmer EnVision 2104 Multilabel Reader.

[2] = target: T2, human H7CR (B7-H7 counter-receptor) (human, UniProt Q96BF3 23-282); assay: flow cytometry titration on CHO.hH7CR transfectants, one-site specific binding fit of MFI
T2 construct: Used for H7CR on CHO.hH7CR transfectants, human T cells and tonsil tissue; also called B7-H7CR; CD28H
T2 sequence: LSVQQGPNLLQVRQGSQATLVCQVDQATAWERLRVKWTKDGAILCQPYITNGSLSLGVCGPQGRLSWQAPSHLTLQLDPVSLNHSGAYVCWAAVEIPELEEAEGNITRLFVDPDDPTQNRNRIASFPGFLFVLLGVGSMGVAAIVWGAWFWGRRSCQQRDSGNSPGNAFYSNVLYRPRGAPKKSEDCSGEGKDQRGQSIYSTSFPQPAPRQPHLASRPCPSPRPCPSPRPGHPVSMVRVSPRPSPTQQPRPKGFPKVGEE
Description: (§1) A serial dilution of chimeric 1.3 and 4.5 of 0, 0.1 ng, 0.3 ng, 1 ng, 3 ng, 10 ng, 30 ng, 100 ng, 300 ng, 1 μg, 3 μg and 10 μg were added to the cells and incubated at 4° C. for 30 min. Cells were then washed twice with 2 ml flow cytometry buffer, and resuspended in 100 μl flow cytometry buffer. 1 μl anti-hIg PE secondary antibody (Biolegend) was added and incubated with the cells for 15 mins Samples were then washed and resuspended in 100 μl flow cytometry buffer. Flow Cytometry data was acquired using BD Canto (BD Biosciences) in plate format and analyzed by FlowJo software. Staining data (MFI) was then input into Prism 5 software to generate binding curve. Curve-fit using one-site specific binding algorithm calculates individual KD for each antibody.

[3] = target: T2, human H7CR (B7-H7 counter-receptor); assay: flow cytometry, MFI against antibody concentration on human naive CD4+CD45RA+ T cells, anti-hIg PE secondary antibody, one-site specific binding fit
Description: as §1

[4] = target: T2, human H7CR (B7-H7 counter-receptor); assay: flow cytometry, MFI against antibody concentration on human naive CD8+CD45RA+ T cells, anti-hIg PE secondary antibody, one-site specific binding fit
Description: as §1

Row | Binder | EC50 [1] [nM] | other results
1 | human IgG4 Fc chimeric 1.3 antibody (antibody, V domains shown, also called parental chimeric 1.3 antibody) VH: QIQLQESGPGLVKPSQSLSLTCSVTGFSISTSGYYWTWIRQFPGKRLEWMGYINYGGGTSYNPSLKSRISITRDTSKNQFLLHLNSVTTEDTATYCCATMADRFAFFDVWGQGIQVTVSS VL: DIVMTQSPSSLAVSAGEKVTISCLSSQSLFSSNTNRNYLNWYLQKPGQSPKLLIYHASTRLTGVPDRFIGSGSGTDFTLTISSVQAEDLGDYYCQHHYETPLTFGDGTKLEIKR | 0.055 | Kd [2]: 5.9 nM; Kd [3]: 24 nM; Kd [4]: 27 nM
2 | chimeric 4.5 antibody (antibody, human IgG4 S228P, kappa, V domains shown) VH: QIQLQESGPGLVKPSQSLSLTCSVTGFSITTGGYYWNWIRQFPGKKLEWMGYIYTSGRTSYNPSLKSRISITRDTSKNQFFLQLNSMTTEDTATYYCADMADKGGWFAYWGQGTLVTVSS VL: DIVMTQSPSSLAVSAGEKVTISCLSSQSLFSSNTKRNYLNWYLQKPGQSPKLLIYHASTRLTGVPGRFIGSGSGTDFTLTVSTVQAEDLGDYFCQQHYETPLTFGDGTRLEIKR |  | Kd [2]: 3.5 nM; Kd [3]: 6.9 nM; Kd [4]: 6.9 nM
3 | 1.3 humanized variant V8 (heavy 1C / light 1B) (antibody, V domains shown, Variable domains only; detected with anti-human IgG4 HRP) VH: QVQLQESGPGLVKPSQTLSLTCTVSGFSISTSGYYWSWIRQFPGKRLEWMGYINYGGGTSYNPSLKSRVTISRDTSKNQFSLKLSSVTAADTATYCCATMADRFAFFDVWGQGTMVTVSS VL: DIVMTQSPDSLAVSLGERATINCKSSQSLFSSNTNRNYLNWYQQKPGQSPKLLIYHASTRLSGVPDRFSGSGSGTDFTLTISSLQAEDVADYYCQHHYETPLTFGDGTKLEIK | 0.74 | 
4 | 1.3 humanized variant V4 (heavy 2A / light 1A) (antibody, V domains shown, Variable domains only; detected with anti-human IgG4 HRP) VH: QVQLQESGPGLVKPAQTLSLTCTVSGFSISTSGYYWSWIRQYPGKGLEWIGYINYGGGTYYNPSLKSRVTISVDTSKNQFSLKLTSVTAADTAVYHCATMADRFAFFDVWGQGTMVTVSS VL: DIVMTQSPDSLAVSLGERATINCKSSQSLFSSNTNRNYLAWYQQKPGQPPKLLIYHASTRESGVPDRFSGSGSGTDFTLTISSLQAEDVAVYYCQHHYETPLTFGQGTKLEIK | 1.08 | 
5 | 1.3 humanized variant V1 (heavy 1A / light 1A) (antibody, V domains shown, Variable domains only; detected with anti-human IgG4 HRP; also called VI; variant 1) VH: QVQLQESGPGLVKPSQTLSLTCTVSGFSISTSGYYWSWIRQHPGKGLEWIGYINYGGGTYYNPSLKSRVTISVDTSKNQFSLKLSSVTAADTAVYYCATMADRFAFFDVWGQGTMVTVSS VL: DIVMTQSPDSLAVSLGERATINCKSSQSLFSSNTNRNYLAWYQQKPGQPPKLLIYHASTRESGVPDRFSGSGSGTDFTLTISSLQAEDVAVYYCQHHYETPLTFGQGTKLEIK | 0.84 | 
6 | 1.3 humanized variant V7 (heavy 1B / light 1B) (antibody, V domains shown, Variable domains only; detected with anti-human IgG4 HRP) VH: QVQLQESGPGLVKPSQTLSLTCTVSGFSISTSGYYWSWIRQHPGKRLEWIGYINYGGGTSYNPSLKSRVTISRDTSKNQFSLKLSSVTAADTAVYCCATMADRFAFFDVWGQGTMVTVSS VL: DIVMTQSPDSLAVSLGERATINCKSSQSLFSSNTNRNYLNWYQQKPGQSPKLLIYHASTRLSGVPDRFSGSGSGTDFTLTISSLQAEDVADYYCQHHYETPLTFGDGTKLEIK | 1.01 | 
7 | 1.3 humanized variant V11 (heavy 1B / light 1C) (antibody, V domains shown, Variable domains only; detected with anti-human IgG4 HRP) VH: QVQLQESGPGLVKPSQTLSLTCTVSGFSISTSGYYWSWIRQHPGKRLEWIGYINYGGGTSYNPSLKSRVTISRDTSKNQFSLKLSSVTAADTAVYCCATMADRFAFFDVWGQGTMVTVSS VL: DIVMTQSPDSLAVSLGERATINCLSSQSLFSSNTNRNYLNWYLQKPGQSPKLLIYHASTRLSGVPDRFIGSGSGTDFTLTISSLQAEDVGDYYCQHHYETPLTFGDGTKLEIK | 1.04 | 
8 | 1.3 humanized variant V14 (heavy 2C / light 1C) (antibody, V domains shown, Variable domains only; detected with anti-human IgG4 HRP) VH: QVQLQESGPGLVKPAQTLSLTCTVSGFSISTSGYYWSWIRQFPGKRLEWMGYINYGGGTSYNPSLKSRVTISRDTSKNQFSLKLTSVTAADTATYCCATMADRFAFFDVWGQGTMVTVSS VL: DIVMTQSPDSLAVSLGERATINCLSSQSLFSSNTNRNYLNWYLQKPGQSPKLLIYHASTRLSGVPDRFIGSGSGTDFTLTISSLQAEDVGDYYCQHHYETPLTFGDGTKLEIK | 0.32 | 
9 | 1.3 humanized variant V2 (heavy 1B / light 1A) (antibody, V domains shown, Variable domains only; detected with anti-human IgG4 HRP) VH: QVQLQESGPGLVKPSQTLSLTCTVSGFSISTSGYYWSWIRQHPGKRLEWIGYINYGGGTSYNPSLKSRVTISRDTSKNQFSLKLSSVTAADTAVYCCATMADRFAFFDVWGQGTMVTVSS VL: DIVMTQSPDSLAVSLGERATINCKSSQSLFSSNTNRNYLAWYQQKPGQPPKLLIYHASTRESGVPDRFSGSGSGTDFTLTISSLQAEDVAVYYCQHHYETPLTFGQGTKLEIK | 0.23 | 
10 | 1.3 humanized variant V9 (heavy 2B / light 1B) (antibody, V domains shown, Variable domains only; detected with anti-human IgG4 HRP) VH: QVQLQESGPGLVKPAQTLSLTCTVSGFSISTSGYYWSWIRQYPGKRLEWIGYINYGGGTSYNPSLKSRVTISRDTSKNQFSLKLTSVTAADTATYCCATMADRFAFFDVWGQGTMVTVSS VL: DIVMTQSPDSLAVSLGERATINCKSSQSLFSSNTNRNYLNWYQQKPGQSPKLLIYHASTRLSGVPDRFSGSGSGTDFTLTISSLQAEDVADYYCQHHYETPLTFGDGTKLEIK | 2.43 | 
11 | 1.3 humanized variant V3 (heavy 1C / light 1A) (antibody, V domains shown, Variable domains only; detected with anti-human IgG4 HRP) VH: QVQLQESGPGLVKPSQTLSLTCTVSGFSISTSGYYWSWIRQFPGKRLEWMGYINYGGGTSYNPSLKSRVTISRDTSKNQFSLKLSSVTAADTATYCCATMADRFAFFDVWGQGTMVTVSS VL: DIVMTQSPDSLAVSLGERATINCKSSQSLFSSNTNRNYLAWYQQKPGQPPKLLIYHASTRESGVPDRFSGSGSGTDFTLTISSLQAEDVAVYYCQHHYETPLTFGQGTKLEIK | 0.38 | 
12 | 1.3 humanized variant V5 (heavy 2B / light 1A) (antibody, V domains shown, Variable domains only; detected with anti-human IgG4 HRP) VH: QVQLQESGPGLVKPAQTLSLTCTVSGFSISTSGYYWSWIRQYPGKRLEWIGYINYGGGTSYNPSLKSRVTISRDTSKNQFSLKLTSVTAADTATYCCATMADRFAFFDVWGQGTMVTVSS VL: DIVMTQSPDSLAVSLGERATINCKSSQSLFSSNTNRNYLAWYQQKPGQPPKLLIYHASTRESGVPDRFSGSGSGTDFTLTISSLQAEDVAVYYCQHHYETPLTFGQGTKLEIK | 0.28 | 
13 | 1.3 humanized variant V13 (heavy 2B / light 1C) (antibody, V domains shown, Variable domains only; detected with anti-human IgG4 HRP) VH: QVQLQESGPGLVKPAQTLSLTCTVSGFSISTSGYYWSWIRQYPGKRLEWIGYINYGGGTSYNPSLKSRVTISRDTSKNQFSLKLTSVTAADTATYCCATMADRFAFFDVWGQGTMVTVSS VL: DIVMTQSPDSLAVSLGERATINCLSSQSLFSSNTNRNYLNWYLQKPGQSPKLLIYHASTRLSGVPDRFIGSGSGTDFTLTISSLQAEDVGDYYCQHHYETPLTFGDGTKLEIK | 0.45 | 
14 | 1.3 humanized variant V6 (heavy 2C / light 1A) (antibody, V domains shown, Variable domains only; detected with anti-human IgG4 HRP) VH: QVQLQESGPGLVKPAQTLSLTCTVSGFSISTSGYYWSWIRQFPGKRLEWMGYINYGGGTSYNPSLKSRVTISRDTSKNQFSLKLTSVTAADTATYCCATMADRFAFFDVWGQGTMVTVSS VL: DIVMTQSPDSLAVSLGERATINCKSSQSLFSSNTNRNYLAWYQQKPGQPPKLLIYHASTRESGVPDRFSGSGSGTDFTLTISSLQAEDVAVYYCQHHYETPLTFGQGTKLEIK | 0.3 | 
15 | 1.3 humanized variant V10 (heavy 2C / light 1B) (antibody, V domains shown, Variable domains only; detected with anti-human IgG4 HRP) VH: QVQLQESGPGLVKPAQTLSLTCTVSGFSISTSGYYWSWIRQFPGKRLEWMGYINYGGGTSYNPSLKSRVTISRDTSKNQFSLKLTSVTAADTATYCCATMADRFAFFDVWGQGTMVTVSS VL: DIVMTQSPDSLAVSLGERATINCKSSQSLFSSNTNRNYLNWYQQKPGQSPKLLIYHASTRLSGVPDRFSGSGSGTDFTLTISSLQAEDVADYYCQHHYETPLTFGDGTKLEIK | 1.18 | 
16 | 1.3 humanized variant V12 (heavy 1C / light 1C) (antibody, V domains shown, Variable domains only; detected with anti-human IgG4 HRP) VH: QVQLQESGPGLVKPSQTLSLTCTVSGFSISTSGYYWSWIRQFPGKRLEWMGYINYGGGTSYNPSLKSRVTISRDTSKNQFSLKLSSVTAADTATYCCATMADRFAFFDVWGQGTMVTVSS VL: DIVMTQSPDSLAVSLGERATINCLSSQSLFSSNTNRNYLNWYLQKPGQSPKLLIYHASTRLSGVPDRFIGSGSGTDFTLTISSLQAEDVGDYYCQHHYETPLTFGDGTKLEIK | 0.75 | 
